Blank lines part the entries; values can stand above or below the substance they belong to.
Biological target: T1, GluK5-WT (kainate receptor subunit GluK5) (UniProt Q16478)
T1 sequence: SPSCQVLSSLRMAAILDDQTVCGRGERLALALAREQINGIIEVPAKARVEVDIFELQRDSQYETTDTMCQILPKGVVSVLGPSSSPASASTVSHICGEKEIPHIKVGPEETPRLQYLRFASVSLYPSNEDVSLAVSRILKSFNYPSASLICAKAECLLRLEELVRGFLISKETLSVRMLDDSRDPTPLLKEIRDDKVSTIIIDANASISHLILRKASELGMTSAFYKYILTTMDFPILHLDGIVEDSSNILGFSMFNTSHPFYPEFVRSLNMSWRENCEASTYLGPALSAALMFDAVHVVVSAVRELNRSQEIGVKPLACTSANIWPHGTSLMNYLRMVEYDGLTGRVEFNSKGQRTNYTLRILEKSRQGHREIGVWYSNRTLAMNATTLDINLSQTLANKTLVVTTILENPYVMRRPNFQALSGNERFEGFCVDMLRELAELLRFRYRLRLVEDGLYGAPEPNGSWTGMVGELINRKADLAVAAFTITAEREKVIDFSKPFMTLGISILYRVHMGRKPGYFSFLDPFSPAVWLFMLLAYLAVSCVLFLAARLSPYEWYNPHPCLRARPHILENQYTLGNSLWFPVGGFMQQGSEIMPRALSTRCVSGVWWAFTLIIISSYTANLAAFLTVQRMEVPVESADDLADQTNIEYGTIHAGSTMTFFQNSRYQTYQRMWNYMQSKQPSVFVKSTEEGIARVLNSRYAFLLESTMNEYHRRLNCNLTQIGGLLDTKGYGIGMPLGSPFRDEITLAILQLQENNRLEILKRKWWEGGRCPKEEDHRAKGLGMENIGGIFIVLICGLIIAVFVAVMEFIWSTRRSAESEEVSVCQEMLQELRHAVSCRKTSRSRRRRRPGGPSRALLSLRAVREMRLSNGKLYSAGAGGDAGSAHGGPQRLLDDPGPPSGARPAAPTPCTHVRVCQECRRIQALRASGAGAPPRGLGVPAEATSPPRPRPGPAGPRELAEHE

Substance: GluK2-S689N/N690S (from UniProt Q13002 32-908) (receptor)
cell surface (biotinylated) GluK2-S689N/N690S, % of total, on co-expression with GluK5-WT in HEK293 cells: 12%
cell surface (biotinylated) GluK5, % of total, on co-expression with GluK2-S689N/N690S in HEK293 cells (GluK5 alone not detectable on the surface): 10%

Substance: GluK2-WT (human GluK2a(Q) kainate receptor subunit) (from UniProt Q13002 32-908)
cell surface (biotinylated) GluK2, % of total, on co-expression with GluK5-WT in HEK293 cells: 28%
cell surface (biotinylated) GluK5, % of total, on co-expression with GluK2-WT in HEK293 cells (GluK5 alone not detectable on the surface): 27%

Now from value to substance:

cell surface (biotinylated) GluK2-A487L, % of total, on co-expression with GluK5-WT in HEK293 cells: 14%
cell surface (biotinylated) GluK5, % of total, on co-expression with GluK2-A487L in HEK293 cells (GluK5 alone not detectable on the surface): 14%
increase in cell surface GluK2-A487L on co-expression with GluK5-WT against the homomeric subunit: 5 fold
Substance: GluK2-A487L (from UniProt Q13002 32-908) (receptor)

cell surface (biotinylated) GluK2-A487T, % of total, on co-expression with GluK5-WT in HEK293 cells: 18%
cell surface (biotinylated) GluK5, % of total, on co-expression with GluK2-A487T in HEK293 cells (GluK5 alone not detectable on the surface): 20%
Substance: GluK2-A487T (from UniProt Q13002 32-908) (receptor)

cell surface (biotinylated) GluK2-T659V, % of total, on co-expression with GluK5-WT in HEK293 cells: 28%
cell surface (biotinylated) GluK5, % of total, on co-expression with GluK2-T659V in HEK293 cells (GluK5 alone not detectable on the surface): 26%
increase in cell surface GluK2-T659V on co-expression with GluK5-WT against the homomeric subunit: 7 fold
Substance: GluK2-T659V (from UniProt Q13002 32-908) (receptor)

— paper PMC6420462
